Measured values from patent US8673848 (Novartis, dated 2014).
*1 amine or outer side, *2 acyl side, *3 side chain or, on linkers, in order; H or OH if unused. Bridges are numbered along the chain shown (N, C = ends). [ ]: non-standard residue; d: D form. The star is where a group is joined. ‑S‑CH2‑C(:Z)‑CH2‑S‑ = thioether linker between two Cys sulfurs, S-CH2-C(=Z)-CH2-S, where Z is an oxime formed with (S)-1-(aminooxy)-19-carboxy-2,7,16,21-tetraoxo-9,12-dioxa-3,6,15,20-tetraazaoctatriacontan-38-oic acid (a fatty acid derivative, O=C(O)CCCCCCCCCCCCCCCCC(=O)N[C@@H](CCC(=O)NCCOCCOCC(=O)NCCNC(=O)CON=C(C[*:1])C[*:2])C(=O)O; Myristoyl = CCCCCCCCCCCCCC(=O)*; pGlu = O=C1CC[C@@H](C(=O)O)N1; Nle = CCCC[C@H](N)C(=O)O; AEEA = NCCOCCOCC(=O)O; Aib = CC(C)(N)C(=O)O

T1: human APJ receptor (hAPJ) (human, UniProt P35414 1-380)
T1 sequence (looked up): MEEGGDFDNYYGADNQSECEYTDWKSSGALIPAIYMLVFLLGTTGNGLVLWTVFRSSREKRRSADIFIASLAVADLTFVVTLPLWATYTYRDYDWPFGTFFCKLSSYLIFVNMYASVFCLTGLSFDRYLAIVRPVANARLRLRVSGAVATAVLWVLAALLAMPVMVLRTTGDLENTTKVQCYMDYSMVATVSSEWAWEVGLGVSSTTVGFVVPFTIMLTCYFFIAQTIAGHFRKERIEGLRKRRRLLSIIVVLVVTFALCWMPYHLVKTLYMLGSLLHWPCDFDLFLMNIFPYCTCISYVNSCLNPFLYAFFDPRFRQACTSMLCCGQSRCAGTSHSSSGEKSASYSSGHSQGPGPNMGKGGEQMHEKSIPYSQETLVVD


biological target: T1, human APJ receptor (hAPJ); assay: cell-based or functional assay

Binder	hAPJ Ca2+ Flux EC50
cyclo(QRPRLCFKGP[Nle]CFGG) (disulfide 6-12) [Example 7: Q-R-P-R-L-C-F-K-G-P-Nle-C-F-G-G]	90.8 nM
[pGlu]RPRLCHKGP[Nle]CF-OH (linker 6-12 via ‑S‑CH2‑C(:Z)‑CH2‑S‑; also: Z = oxime with (S)-1-(aminooxy)-19-carboxy-2,7,16,21-tetraoxo-9,12-dioxa-3,6,15,20-tetraazaoctatriacontan-38-oic acid on the linker ketone)	589 nM
[pGlu]RPRLCHKGP[Nle]C-NH2 (disulfide 6-12; SMILES CCCC[C@@H]1NC(=O)[C@@H]2CCCN2C(=O)CNC(=O)[C@H](CCCCN)NC(=O)[C@H](Cc2c[nH]cn2)NC(=O)[C@@H](NC(=O)[C@H](CC(C)C)NC(=O)[C@H](CCCNC(=N)N)NC(=O)[C@@H]2CCCN2C(=O)[C@H](CCCNC(=N)N)NC(=O)[C@@H]2CCC(=O)N2)CSSC[C@@H](C(N)=O)NC1=O) [Example 63: pE-R-P-R-L-C-H-K-G-P-Nle-C-NH2]	3.18 nM
[pGlu]RPRLCHK(Myristoyl)GP[Nle]CF-OH (disulfide 6-12; SMILES CCCCCCCCCCCCCC(=O)NCCCC[C@@H]1NC(=O)[C@H](Cc2c[nH]cn2)NC(=O)[C@@H](NC(=O)[C@H](CC(C)C)NC(=O)[C@H](CCCNC(=N)N)NC(=O)[C@@H]2CCCN2C(=O)[C@H](CCCNC(=N)N)NC(=O)[C@@H]2CCC(=O)N2)CSSC[C@@H](C(=O)N[C@@H](Cc2ccccc2)C(=O)O)NC(=O)[C@H](CCCC)NC(=O)[C@@H]2CCCN2C(=O)CNC1=O) [Example 61: pE-R-P-R-L-C-H-K(Myristoyl)-G-P-Nle-C-F-OH]	89.2 nM
[pGlu]RPRLC[Aib]KGP[Nle]CF-OH (disulfide 6-12; SMILES CCCC[C@@H]1NC(=O)[C@@H]2CCCN2C(=O)CNC(=O)[C@H](CCCCN)NC(=O)C(C)(C)NC(=O)[C@@H](NC(=O)[C@H](CC(C)C)NC(=O)[C@H](CCCNC(=N)N)NC(=O)[C@@H]2CCCN2C(=O)[C@H](CCCNC(=N)N)NC(=O)[C@@H]2CCC(=O)N2)CSSC[C@@H](C(=O)N[C@@H](Cc2ccccc2)C(=O)O)NC1=O) [Example 9: pE-R-P-R-L-C-Aib-K-G-P-Nle-C-F-OH]	2.16 nM
[pGlu]RPRLCHKGP[Nle]CF-OH (disulfide 6-12) [Example 8: pE-R-P-R-L-C-H-K-G-P-Nle-C-F-OH]	1.04 nM
[pGlu]RPRLCHKGP[Nle]CF-OH (bridge 6-12; not fully specified (bridges); printed as pE-R-P-R-L-C-H-K-G-P-Nle-C-F-OH)	1.1 nM
[pGlu]RPRLCHKGP[Nle]CF-OH (linker 6-12 via ‑S‑CH2‑C(O)CH2‑S‑)	6.3 nM
[pGlu]RPRLKFKGP[Nle][dF] (lactam 6-C; SMILES CCCC[C@@H]1NC(=O)[C@@H]2CCCN2C(=O)CNC(=O)[C@H](CCCCN)NC(=O)[C@H](Cc2ccccc2)NC(=O)[C@@H](NC(=O)[C@H](CC(C)C)NC(=O)[C@H](CCCNC(=N)N)NC(=O)[C@@H]2CCCN2C(=O)[C@H](CCCNC(=N)N)NC(=O)[C@@H]2CCC(=O)N2)CCCCNC(=O)[C@@H](Cc2ccccc2)NC1=O) [Example 6: pE-R-P-R-L-K-F-K-G-P-Nle-f]	22 nM
[pGlu]RPRLCHKGP[Nle]CF-NH2 (disulfide 6-12; SMILES CCCC[C@@H]1NC(=O)[C@@H]2CCCN2C(=O)CNC(=O)[C@H](CCCCN)NC(=O)[C@H](Cc2c[nH]cn2)NC(=O)[C@@H](NC(=O)[C@H](CC(C)C)NC(=O)[C@H](CCCNC(=N)N)NC(=O)[C@@H]2CCCN2C(=O)[C@H](CCCNC(=N)N)NC(=O)[C@@H]2CCC(=O)N2)CSSC[C@@H](C(=O)N[C@@H](Cc2ccccc2)C(N)=O)NC1=O) [Example 62: pE-R-P-R-L-C-H-K-G-P-Nle-C-F-NH2]	3.32 nM
Myristoyl-[AEEA][AEEA][AEEA][AEEA]QRPRLCHKGP[Nle]C[dF]-OH (disulfide 10-16; SMILES CCCCCCCCCCCCCC(=O)NCCOCCOCC(=O)NCCOCCOCC(=O)NCCOCCOCC(=O)NCCOCCOCC(=O)N[C@@H](CCC(N)=O)C(=O)N[C@@H](CCCNC(=N)N)C(=O)N1CCC[C@H]1C(=O)N[C@@H](CCCNC(=N)N)C(=O)N[C@@H](CC(C)C)C(=O)N[C@H]1CSSC[C@@H](C(=O)N[C@H](Cc2ccccc2)C(=O)O)NC(=O)[C@H](CCCC)NC(=O)[C@@H]2CCCN2C(=O)CNC(=O)[C@H](CCCCN)NC(=O)[C@H](Cc2c[nH]cn2)NC1=O) [Example 60: Myristoyl-O2Oc-O2Oc-O2Oc-O2Oc-Q-R-P-R-L-C-H-K-G-P-Nle-C-f-OH]	8.15 nM
